Patent publication US20200247886A1 (ZLIP, published 2020)
Blank lines part the entries; values can stand above or below the binder they belong to.

Tests used:
[1] = target: T1, human CD47 expressed on cells (CD47 expressing CHO cells, Jurkat, HL60, DLD1, Raji) (human, UniProt Q08722 19-292); assay: flow cytometry on CD47 expressing CHO cells, MFI (FL-4)
T1 construct: also called CHO-CD47; IAP

[2] = target: T1, human CD47 expressed on cells (CD47 …); assay: IC50 as grade, SIRPα blocking on Raji cells; legend +++: <1 nM
[3] = target: T1, human CD47 expressed on cells (CD47 …); assay: flow cytometry blocking assay on Raji cells, SIRPα is the blocked ligand, MFI
[4] = target: T1, human CD47 expressed on cells (CD47 …); assay: flow cytometry on human platelets, MFI
[5] = target: T1, human CD47 expressed on cells (CD47 …); assay: flow cytometry on human red blood cells, MFI
CD47 on monkey RBC = target: T2, CD47 on monkey RBC (Macaca fascicularis, UniProt A0A2K5X523); assay: flow cytometry on cynomolgus monkey red blood cells expressing CD47, MFI
T2 construct: native, on red blood cells; also called cynomolgus monkey red blood cells expressing CD47

[6] = target: T1, human CD47 expressed on cells (CD47 …); assay: flow cytometry on human platelets, donor 1, MFI
[7] = target: T1, human CD47 expressed on cells (CD47 …); assay: flow cytometry on human platelets, donor 2, MFI
[8] = target: T1, human CD47 expressed on cells (CD47 …); assay: flow cytometry on human red blood cells, donor 1, MFI
[9] = target: T1, human CD47 expressed on cells (CD47 …); assay: flow cytometry on human red blood cells, donor 2, MFI
CHO/mCD47-GFP = target: T3, CHO/mCD47-GFP (mouse, UniProt Q61735); assay: flow cytometry on CHO cells expressing mouse CD47-GFP, binding percentage
T3 construct: on the cell surface; also called mouse CD47 expressed on CHO cells; CHO cell expressing mouse CD47
T3 sequence (receptor, looked up): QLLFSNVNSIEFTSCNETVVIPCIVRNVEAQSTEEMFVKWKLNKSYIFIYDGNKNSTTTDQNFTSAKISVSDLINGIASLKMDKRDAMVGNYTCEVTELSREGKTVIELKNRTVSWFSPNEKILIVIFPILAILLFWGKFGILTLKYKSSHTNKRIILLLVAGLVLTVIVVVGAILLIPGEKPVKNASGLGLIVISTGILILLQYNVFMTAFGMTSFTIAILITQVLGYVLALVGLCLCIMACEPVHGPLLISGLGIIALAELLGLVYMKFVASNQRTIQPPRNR

[10] = target: T1, human CD47 expressed on cells (CD47 …); assay: flow cytometry SIRP-alpha blocking assay on Raji cells, MFI
[11] = target: T1, human CD47 expressed on cells (CD47 …); assay: flow cytometry on DLD1 cells, IgG, MFI
[12] = target: T1, human CD47 expressed on cells (CD47 …); assay: flow cytometry on DLD1 cells, IgG, frequency

- EC50 (read off the curve) [1]: ~1 nM
B1: C-ABU4 (antibody, human IgG4 S228P, kappa, V domains shown)
VH: QVQLQQSGPQLVRPGASVKISCKTSGYSFTNYWMQWVKQRPGQGLEWIGMIDPSDSESRLNQKFKDKATLTVDKSSSTAYMQLSSPTFEDSAVYYCARRGSPMITSFAYWGQGTLVTVSA
VL: DVQITQSPSFLAASPGETITINCRASKNIGKYLAWFQEKPGKTNKLLIYSGSTLQSGIPSRFSGSGSGTDFTLTISSLEPEDFAIYYCQQHNEYPYTFGGGTKLEIKR
notes: Human chimeric IgG4 antibody

- IC50 [2]: < 1 nM
- IC50 (read off the curve) [3]: ~0.4 nM
B2: H-ABU 6 (antibody, V domains shown)
VH: QVQLVQSGAEVKKPGASVKVSCKASGYTFTDFYINWVRQAPGQRLEWMGWIYLGSGNTKYNEKFKGRVTITRDTSASTAYMELSSLRSEDTAVYYCARREERGFAYWGQGTLVTVSS
VL: DIVMTQSPDSLAVSLGERATINCKSSQSLLSSNQKNYLAWYQQKPGQPPKLLIYWASVRDSGVPDRFSGSGSGTDFTLTISSLQAEDVAVYYCQQFYSYPLTFGQGTKVEIK

- EC50 (read off the curve) [4]: ~2 nM
- EC50 (read off the curve) [5]: ~4 nM
B3: H-ABU10-IgG4-P (antibody)
light chain: DIVMTQSPDSLAVSLGERATINCKSSQSLVSSSQKNYLAWYQQKPGQPPKLLIYWASVRDSGVPDRFSGSGSGTDFTLTISSLQAEDVAVYYCQQYYSYPLTFGQGTKVEIK
heavy chain: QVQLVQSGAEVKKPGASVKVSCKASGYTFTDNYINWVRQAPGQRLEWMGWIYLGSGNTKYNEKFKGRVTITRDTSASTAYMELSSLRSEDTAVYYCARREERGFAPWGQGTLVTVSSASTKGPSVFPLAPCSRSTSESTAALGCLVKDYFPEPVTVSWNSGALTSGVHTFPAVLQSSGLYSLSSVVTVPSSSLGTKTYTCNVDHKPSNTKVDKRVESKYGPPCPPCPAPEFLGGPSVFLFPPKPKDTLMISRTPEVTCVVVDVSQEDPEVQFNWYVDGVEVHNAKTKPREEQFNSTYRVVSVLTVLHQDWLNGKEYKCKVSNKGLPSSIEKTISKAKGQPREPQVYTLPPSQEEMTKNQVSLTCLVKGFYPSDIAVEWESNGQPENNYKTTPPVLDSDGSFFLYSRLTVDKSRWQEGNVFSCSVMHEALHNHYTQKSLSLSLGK

- EC50 (read off the curve) [4]: ~2 nM
- EC50 (read off the curve) [5]: ~4 nM
B4: H-ABU10-IgG4-PE (antibody)
light chain: DIVMTQSPDSLAVSLGERATINCKSSQSLVSSSQKNYLAWYQQKPGQPPKLLIYWASVRDSGVPDRFSGSGSGTDFTLTISSLQAEDVAVYYCQQYYSYPLTFGQGTKVEIK
heavy chain: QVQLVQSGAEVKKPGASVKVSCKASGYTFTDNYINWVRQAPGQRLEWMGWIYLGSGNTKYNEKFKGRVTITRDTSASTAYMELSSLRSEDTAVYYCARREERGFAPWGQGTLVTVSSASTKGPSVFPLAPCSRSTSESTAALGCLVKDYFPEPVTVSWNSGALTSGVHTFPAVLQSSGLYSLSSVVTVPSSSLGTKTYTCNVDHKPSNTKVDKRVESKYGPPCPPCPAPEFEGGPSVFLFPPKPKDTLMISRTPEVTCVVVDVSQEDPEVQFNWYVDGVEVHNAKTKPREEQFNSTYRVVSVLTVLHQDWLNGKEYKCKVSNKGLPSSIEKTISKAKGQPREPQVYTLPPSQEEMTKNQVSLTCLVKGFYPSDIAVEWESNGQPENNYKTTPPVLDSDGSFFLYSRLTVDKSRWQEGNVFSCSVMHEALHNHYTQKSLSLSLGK

- IC50 [2]: < 1 nM
- IC50 (read off the curve) [3]: ~0.3 nM
B5: H-ABU 4 (antibody, V domains shown)
VH: QVQLVQSGAEVKKPGASVKVSCKASGYTFTDIYINWVRQAPGQRLEWMGWIYLGSGNVKYNEKFKGRVTITRDTSASTAYMELSSLRSEDTAVYYCARREDRGFAYWGQGTLVTVSS
VL: DIVMTQSPDSLAVSLGERATINCKSSQSLLSSNQKYYLAWYQQKPGQPPKLLIYWASTRDSGVPDRFSGSGSGTDFTLTISSLQAEDVAVYYCQQFYSYPLTFGQGTKVEIK

- EC50 (read off the curve) [4]: ~2 nM
- EC50 (read off the curve) [5]: ~4 nM
- EC50 (read off the curve) (CD47 on monkey RBC): ~0.2 µg/mL
B6: Positive 3-IgG4-P (antibody)
heavy chain: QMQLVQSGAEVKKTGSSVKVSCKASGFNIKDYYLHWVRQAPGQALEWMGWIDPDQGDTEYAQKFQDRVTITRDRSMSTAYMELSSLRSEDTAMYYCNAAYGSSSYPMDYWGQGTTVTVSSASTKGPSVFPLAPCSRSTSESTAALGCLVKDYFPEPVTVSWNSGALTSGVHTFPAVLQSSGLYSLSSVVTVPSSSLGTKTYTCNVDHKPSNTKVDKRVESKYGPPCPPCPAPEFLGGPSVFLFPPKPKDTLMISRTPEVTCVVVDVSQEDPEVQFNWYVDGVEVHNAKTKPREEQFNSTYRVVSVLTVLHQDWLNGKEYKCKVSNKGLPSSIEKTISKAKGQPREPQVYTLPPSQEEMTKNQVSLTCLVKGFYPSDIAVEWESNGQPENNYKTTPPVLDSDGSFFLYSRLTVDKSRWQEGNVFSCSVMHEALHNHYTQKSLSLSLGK
light chain: QMTQSPSAMSASVGDRVTITCKASQDIHRYLSWFQQKPGKVPKHLIYRANRLVSGVPSRFSGSGSGTEFTLTISSLQPEDFATYYCLQYDEFPYTFGGGTKVEIKRTVAAPSVFIFPPSDEQLKSGTASVVCLLNNFYPREAKVQWKVDNALQSGNSQESVTEQDSKDSTYSLSSTLTLSKADYEKHKVYACEVTHQGLSSPVTKSFNRGEC

- EC50 (read off the curve) [4]: ~2 nM
- EC50 (read off the curve) [5]: ~4 nM
- EC50 (read off the curve) (CD47 on monkey RBC): ~0.1 µg/mL
B7: Positive 3-IgG4-PE (antibody)
heavy chain: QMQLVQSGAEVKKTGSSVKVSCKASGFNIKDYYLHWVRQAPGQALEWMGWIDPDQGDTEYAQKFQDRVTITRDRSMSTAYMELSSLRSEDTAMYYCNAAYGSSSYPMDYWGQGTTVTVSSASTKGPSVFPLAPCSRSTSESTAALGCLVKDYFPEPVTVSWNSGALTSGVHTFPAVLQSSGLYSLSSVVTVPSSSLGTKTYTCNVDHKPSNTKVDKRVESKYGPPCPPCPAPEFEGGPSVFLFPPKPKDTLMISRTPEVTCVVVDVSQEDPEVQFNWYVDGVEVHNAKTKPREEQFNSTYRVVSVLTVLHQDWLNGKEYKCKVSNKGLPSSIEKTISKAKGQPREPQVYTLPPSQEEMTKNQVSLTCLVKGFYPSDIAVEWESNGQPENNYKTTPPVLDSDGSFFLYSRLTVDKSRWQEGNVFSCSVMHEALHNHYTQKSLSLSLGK
light chain: QMTQSPSAMSASVGDRVTITCKASQDIHRYLSWFQQKPGKVPKHLIYRANRLVSGVPSRFSGSGSGTEFTLTISSLQPEDFATYYCLQYDEFPYTFGGGTKVEIKRTVAAPSVFIFPPSDEQLKSGTASVVCLLNNFYPREAKVQWKVDNALQSGNSQESVTEQDSKDSTYSLSSTLTLSKADYEKHKVYACEVTHQGLSSPVTKSFNRGEC

- EC50 (read off the curve) [6]: ~0.1 nM
- EC50 (read off the curve) [7]: ~0.1 nM
- EC50 (read off the curve) [8]: ~0.2 nM
- EC50 (read off the curve) [9]: ~0.2 nM
B8: H-ABU44 (antibody, V domains shown)
VH: QVQLVQSGAEVKKPGASVKVSCKASGYSFTNYHIHWVRQAPGQRLEWIGWIYPGSGNTKYNEKFKGRATLTADTSASTAYMELSSLRSEDTAVYYCARYDYDLYLHSWGQGTLVTVSS
VL: DIQITQSPSSVSASVGDRVTITCHASQNINVWLSWYQQKPGKAPKLLIYKASNLHTGVPSRFSGSGSGTGFTLTISSLQPEDFATYYCQQGQSYPLTFGQGTKLEIK

- binding result (CHO/mCD47-GFP): no binding (tested: about 0.4 ug/ml)
B9: ABU7 (antibody, V domains shown)
VH: EVQLQQSGPELVKPGASVKISCKASGYSFTGYYMNWVKQSPEKSLEWIGEINPSTGGTTYNQKFKAKATLTVDKSSSTAYMQLKSLTFEDSAVYYCAIYDGYEGFAYWGQGTLVTVSA
VL: DIKMTQSPSSMYASLGERVTITCKASQDIKSYLSWYQQKPWKSPKTLIYYATSLADGVPSRFSGSGSGQHYSLTISSLESDDTATYYCLQHGESPFTFGSGTKLEIK
notes: Murine hybridoma monoclonal antibody

- IC50 (read off the curve) [10]: ~0.3 nM
B10: H-ABU 39 (antibody, V domains shown)
VH: QVQLVQSGAEVKKPGASVKVSCKTSGYSFTNYWMQWVRQAPGQGLEWIGMIDPSDSESRLNQKFKDRATLTVDTSTSTAYMELSSLRSEDTAVYYCARRGSPMITSFAYWGQGTLVTVSS
VL: DVQITQSPSSLSASVGDRVTITCRASKNIGKYLAWFQQKPGKTNKLLIYSGSTLQSGIPSRFSGSGSGTDFTLTISSLQPEDFATYYCQQHNEYPYTFGGGTKVEIK
notes: Humanized antibody

- EC50 (read off the curve) [6]: ~0.6 nM
- EC50 (read off the curve) [7]: ~0.6 nM
- EC50 (read off the curve) [8]: ~1 nM
- EC50 (read off the curve) [9]: ~1 nM
- IC50 (read off the curve) [10]: ~0.3 nM
B11: H-ABU 41 (antibody, V domains shown)
VL: DVQITQSPSSLSASVGDRVTITCRASKNIGKYLAWFQQKPGKTNKLLIYSGSTLQSGIPSRFSGSGSGTDFTLTISSLQPEDFATYYCQQHNEYPYTFGGGTKVEIK
VH: QVQLQQSGAEVKKPGASVKVSCKTSGYSFTNYWMQWVRQAPGQGLEWIGMIDPSDSESRLNQKFKDKATLTVDKSTSTAYMELSSLRSEDTAVYYCARRGSPMITSFAYWGQGTLVTVSS
notes: Humanized antibody

- IC50 (read off the curve) [10]: ~0.3 nM
B12: H-ABU 38 (antibody, V domains shown)
VH: QVQLVQSGAEVKKPGASVKVSCKASGYTFTNYWMQWVRQAPGQGLEWIGMIDPSDSESRLNQKFKDRATLTVDTSTSTVYMELSSLRSEDTAVYYCARRGSPMITSFAYWGQGTLVTVSS
VL: DVQITQSPSSLSASVGDRVTITCRASKNIGKYLAWFQQKPGKTNKLLIYSGSTLQSGIPSRFSGSGSGTDFTLTISSLQPEDFATYYCQQHNEYPYTFGGGTKVEIK
notes: Humanized antibody

- IC50 (read off the curve) [10]: ~0.3 nM
B13: H-ABU 37 (antibody, V domains shown)
VH: QVQLVQSGAEVKKPGASVKVSCKASGYTFTNYWMQWVRQAPGQGLEWMGMIDPSDSESRLNQKFKDRVTMTRDTSTSTVYMELSSLRSEDTAVYYCARRGSPMITSFAYWGQGTLVTVSS
VL: DVQITQSPSSLSASVGDRVTITCRASKNIGKYLAWFQQKPGKTNKLLIYSGSTLQSGIPSRFSGSGSGTDFTLTISSLQPEDFATYYCQQHNEYPYTFGGGTKVEIK
notes: Humanized antibody

- EC50 (read off the curve) [6]: ~0.6 nM
- EC50 (read off the curve) [7]: ~0.6 nM
- EC50 (read off the curve) [8]: ~1 nM
- EC50 (read off the curve) [9]: ~1 nM
- IC50 (read off the curve) [10]: ~0.3 nM
B14: H-ABU 43 (antibody, V domains shown)
VH: QVQLVQSGAEVKKPGASVKVSCKTSGYSFTNYWMQWVRQAPGQGLEWMGMIDPSDSESRLNQKFKDRVTMTRDTSTSTAYMELSSLRSEDTAVYYCARRGSPMITSFAYWGQGTLVTVSS
VL: DVQITQSPSSLSASVGDRVTITCRASKNIGKYLAWFQQKPGKTNKLLIYSGSTLQSGIPSRFSGSGSGTDFTLTISSLQPEDFATYYCQQHNEYPYTFGGGTKVEIK
notes: Humanized antibody

- EC50 (read off the curve) [11]: ~4 nM
- EC50 (read off the curve) [12]: ~0.4 nM
B15: ABU16 (IgG) (antibody, V domains shown)
VH: RVQLQQSGAELVRPGTSVKVSCKASAYAFTNYLIEWVKKRPGQGLEWIGVINPGSGGTNYNEKFKGKATLTADKSSSTAYMQLSSLTSEDSAVYFCARGDGYGSLFAYWGQGTLVTVSA
VL: RHCFNQSPAIMSASPGEKVTMTCSASSSVSYMHWYQQKSGTSPKRWIYDTSNLASGVPVRFSGSGSGTSYSLTISRMEAEDAATYYCQQWSNYPFTFGSGTKLELK
